# According to paper PMC2856910:
# Target: β-cat bound to cadherin (in vitro binding studies, unpublished data) (UniProt Q02248)
# Chain of UniProt Q02248 (Q02248 whole entry, chain 1 of 2): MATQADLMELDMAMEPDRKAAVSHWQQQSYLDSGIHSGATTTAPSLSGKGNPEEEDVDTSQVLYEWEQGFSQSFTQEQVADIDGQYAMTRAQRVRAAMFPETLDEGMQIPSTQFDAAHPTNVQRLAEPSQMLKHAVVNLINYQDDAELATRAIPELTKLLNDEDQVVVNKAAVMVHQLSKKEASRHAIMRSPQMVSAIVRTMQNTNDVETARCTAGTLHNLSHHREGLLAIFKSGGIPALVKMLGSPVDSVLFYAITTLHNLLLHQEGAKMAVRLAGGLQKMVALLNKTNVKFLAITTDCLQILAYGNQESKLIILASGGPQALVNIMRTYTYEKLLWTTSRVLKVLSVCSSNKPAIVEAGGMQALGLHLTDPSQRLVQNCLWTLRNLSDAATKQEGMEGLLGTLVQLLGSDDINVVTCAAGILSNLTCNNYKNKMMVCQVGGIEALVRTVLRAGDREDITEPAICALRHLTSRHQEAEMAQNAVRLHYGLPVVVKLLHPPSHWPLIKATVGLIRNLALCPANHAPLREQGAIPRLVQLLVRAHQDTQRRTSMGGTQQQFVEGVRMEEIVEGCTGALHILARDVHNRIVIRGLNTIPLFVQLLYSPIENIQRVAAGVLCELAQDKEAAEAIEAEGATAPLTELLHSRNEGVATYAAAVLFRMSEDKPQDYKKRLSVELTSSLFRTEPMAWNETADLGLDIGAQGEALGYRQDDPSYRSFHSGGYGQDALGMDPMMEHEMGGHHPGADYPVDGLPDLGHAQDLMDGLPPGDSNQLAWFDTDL
# Chain of UniProt Q02248 (P09803 24-884, chain 2 of 2, further chain): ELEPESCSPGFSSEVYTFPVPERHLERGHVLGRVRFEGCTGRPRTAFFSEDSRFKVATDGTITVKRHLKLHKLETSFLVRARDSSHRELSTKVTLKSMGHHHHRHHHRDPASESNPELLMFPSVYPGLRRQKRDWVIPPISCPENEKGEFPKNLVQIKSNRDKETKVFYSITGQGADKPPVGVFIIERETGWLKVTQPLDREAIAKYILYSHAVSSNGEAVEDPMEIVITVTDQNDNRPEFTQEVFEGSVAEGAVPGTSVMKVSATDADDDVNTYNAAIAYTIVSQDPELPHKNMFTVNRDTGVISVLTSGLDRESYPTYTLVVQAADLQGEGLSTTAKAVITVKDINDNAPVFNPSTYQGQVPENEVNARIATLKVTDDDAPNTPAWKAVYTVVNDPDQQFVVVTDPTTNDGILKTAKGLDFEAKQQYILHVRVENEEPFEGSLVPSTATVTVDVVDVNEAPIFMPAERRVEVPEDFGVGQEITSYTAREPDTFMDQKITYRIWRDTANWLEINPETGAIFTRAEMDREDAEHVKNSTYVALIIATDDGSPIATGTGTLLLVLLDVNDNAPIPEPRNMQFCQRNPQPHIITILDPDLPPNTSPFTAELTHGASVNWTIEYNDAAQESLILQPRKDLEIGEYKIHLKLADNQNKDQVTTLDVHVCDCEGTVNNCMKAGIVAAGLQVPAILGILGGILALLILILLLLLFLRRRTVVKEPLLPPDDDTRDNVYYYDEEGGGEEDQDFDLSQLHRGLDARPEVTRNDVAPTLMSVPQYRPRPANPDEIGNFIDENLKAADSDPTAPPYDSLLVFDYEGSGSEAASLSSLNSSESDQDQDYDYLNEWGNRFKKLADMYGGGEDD
substance,measurement,value
"α-catenin (in vitro binding studies, unpublished data) (from UniProt P26231 1-906) (natural protein)",fold enhancement of binding against β-cat alone,> 10 fold
